# Measurements taken from the supplement of paper PMC10567573.
# ± gives the standard deviation.
# Experiment: protein stability index of a GFP-peptide fusion (GPS, HEK-293T) (PSI 1-6); higher = more stable
# Conditions: c terminus: a fixed tail appended
# 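Note: 24-mer peptide tiles fused after GFP, lentivirally expressed, FACS-sorted into six equal bins by GFP/DsRed ratio, decoded by Illumina sequencing, PSI is the read-weighted mean bin number.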
Sequence,protein stability index (treatment: DMSO),"protein stability index (treatment: MLN4924 1 uM, 8 h)"
AAAGEQASGAEAEPGPAGPPPPPS [BTBD1],5.446 ± 0.021,5.52 ± 0.19
AAAYTFLQRNPKHELTAKYLNYYQ [P3H4],2.25 ± 0.23,2 ± 0.33
AAGGDGELGSPLRRSISSSRSENV [PSD2],5.07 ± 0.11,5.1 ± 0.19
AAGTHDGSVYFWATPRQVPSLQHL [WSB1],2.52 ± 0.22,2.64 ± 0.21
AAIDNGLAFPLKHPDSWRAYPFYW [PI4K2A],2.27 ± 0.18,2.26 ± 0.2
AAIFKIYLSCLEELMKCQIIYPRQ [TRIP13],3.08 ± 0.43,3.21 ± 0.17
AAKPAASITSKPATLTTTSATSKL [ZNF207],4.6 ± 0.12,4.6 ± 0.17
AAPFPSPAPASPAISVVGVSAGGH [TFE3],4.24 ± 0.35,4.16 ± 0.38
AARAAGRDVAAEAVARSPKRPAWG [POMT2],4.1 ± 0.29,4.29 ± 0.51
ACRFTKCLRVGMLKEGVRLDRVRG [ESRRA],2.31 ± 0.17,2.25 ± 0.19
ACTMDQARGLDDAAARGGQCPGLG [ZBED3],4.54 ± 0.18,4.51 ± 0.14
ADKCVCGPSAPPAPTPPSLSQRVM [TIAF1],4.15 ± 0.24,4.42 ± 0.35
ADLSQKSPELQEEFGYNAETQKLL [ARFIP2],4.95 ± 0.37,5.14 ± 0.17
ADTGRIHRFVEKPQVFVSNKINAG [GMPPB],3.46 ± 0.32,3.84 ± 0.18
ADTNSDRLFTVNDVKVGGSKYGII [DCAF4],3.01 ± 0.21,3.02 ± 0.28
AGEREDLWAGSKGKEFGYFPRDAV [MIA2],3.47 ± 0.15,3.86 ± 0.51
AGGIRESKESSKEKKLTVRQDLED [C22orf31],5.56 ± 0.12,5.48 ± 0.3
AGKWRSYKGELFDKTPVLLTDYPV [MYORG],2.32 ± 0.21,2.43 ± 0.25
AGLVHVKQCIVAHPVNPPYYIPLV [CRYL1],2.46 ± 0.33,2.36 ± 0.54
AGPGAPEPLAEGAAAEFSSLLRRI [SLC35F2],3.9 ± 0.32,3.77 ± 0.46
AHSNEILIFSVQPKSLVRLSLEAV [KLHDC2],3.01 ± 0.48,2.6 ± 0.12
AIAMYFLPPSPRFLVMKGQEGAAS [SLC2A12],2.17 ± 0.53,1.97 ± 0.31

Sequence,protein stability index (treatment: DMSO),"protein stability index (treatment: MLN4924 1 uM, 8 h)"
AIELQGHNDRVQALSYAQHTRQLI [WDFY2],3.1 ± 0.36,3.15 ± 0.41
AIGRVRVLEEQLVKAKEQIENYKK [FUT8],4.03 ± 0.16,4.28 ± 0.27
AILMKAYQRFRQKSKASFLLLASG [PTGFR],3.41 ± 0.86,2.83 ± 0.41
AKAPPTACYAGAAPAPSQVKSKAK [CEBPB],5.36 ± 0.19,5.21 ± 0.2
AKQTKRMLDMKVNPIQGLASKWDY [COX4I1],2.93 ± 0.35,2.72 ± 0.34
ALEFWRQEELTRINQSFTGAERKA [IQUB],3.87 ± 0.52,3.73 ± 0.43
ALEQREQDAVDQVKVIMDALDERA [TRIM29],5.33 ± 0.097,5.31 ± 0.29
ALGIYGAPYAAAAAAQSYPGYLPY [IRX6],2.23 ± 0.14,2.19 ± 0.27
ALGKLLPRETLCTELVLSDCMLSE [LRRC45],2.22 ± 0.32,2.67 ± 0.45
ALLGYEMVQVACGASHVLALSTER [NEK8],2.5 ± 0.88,2.12 ± 0.44
ALLHQAETLQPSVWFGGREHVLMF [TMEM175],2.28 ± 0.51,1.95 ± 0.5
ALLQAMKDLDGMDADILGLKKSNS [FBF1],2.83 ± 0.78,2.82 ± 0.29
ALRVLAEQNIIPSATNVTCYYQPA [TENT5C],2.31 ± 0.22,2.2 ± 0.089
ALVAPLLRLENNHCHIEESEHVLK [VPS39],3.26 ± 0.11,3.32 ± 0.2
ALVCQVDNDHKEAVGKMGFVVTML [ZER1],2.29 ± 0.29,2.37 ± 0.5
AMAMGTPSTTERISTSGQAGTSSH [PXN],4.86 ± 0.31,4.98 ± 0.1
AMEAVRVNPLHVDSTWLLLRRIRA [SLC25A39],2.66 ± 0.41,2.81 ± 0.19
ANGTVIAEFILLGLLEAPGLQPVV [OR3A1],3.06 ± 0.61,2.7 ± 0.35
ANNRILAERIAKEIQVIPLQRDDE [IMPA1],4.17 ± 0.38,4.04 ± 0.068
ANTMEHLSLLDNNIPGNSTLITAV [FBXO33],3.16 ± 0.17,3.25 ± 0.33
APPAKLACPVCSKMVPRYDLNRHL [FAN1],2.39 ± 0.21,2.95 ± 0.55
APSLSGKGNPEEEDVDTSQVLYEW [CTNNB1],5.14 ± 0.28,5.15 ± 0.18

Sequence,protein stability index (treatment: DMSO),"protein stability index (treatment: MLN4924 1 uM, 8 h)"
APSPGVKEQAIWKHPQPAPAVTPD [PKD2L1],5.15 ± 0.1,5.07 ± 0.13
AQKLTIRLSSRYRYGQLIEINSHS [TRIP13],2.17 ± 0.55,2.01 ± 0.27
AQRVKEVLPHVPLGVIQRDLAKTG [AUP1],3.81 ± 0.42,3.85 ± 0.17
AQSAGTQQVAAVSSVSPATPFQSV [BRD3],4.42 ± 0.19,4.37 ± 0.11
AQSRLEDPGADSEKSTVVEGGEVR [DLX1],5.42 ± 0.28,5.45 ± 0.37
AQTNPTPGSLGPWKITIYDQENFQ [CRYBA1],3.18 ± 0.41,3.3 ± 0.2
ARQELLGDRPRWQRLLGEDKFQWL [ANKRD9],2.66 ± 0.46,2.98 ± 0.31
ASFRVTTGTSNTTAIKSIEFARKG [RBBP5],3.91 ± 0.62,3.86 ± 0.23
ASLLPSARLASPLPREEEIVFPEK [ADAMTS4],4.7 ± 0.63,4.97 ± 0.46
ASSMLRKSQLGFLNVTNYCHLAHE [DCAF4],2.2 ± 0.41,2.42 ± 0.16
ASVATWAIFVHRVGQPSIGGKLSP [CTBP1-DT],2.65 ± 0.9,2.33 ± 0.33
ATDNYDIGFGVYFEWTDSPNTAVS [ACBD3],2.21 ± 0.16,2.25 ± 0.48
ATGEVLGQFYLDLYPREGKYNHAA [NLN],2.91 ± 0.83,2.73 ± 0.27
AVLAASSPYFHDQVLLKGMTSISL [ZBTB22],2.7 ± 0.32,2.47 ± 0.34
AVLGLYLLVFLILVGIFILAVSRP [SCARA5],3.3 ± 0.071,2.58 ± 0.63
AVPTDEARAFAEKNNLSFIETSAL [RAB11B],3.31 ± 0.31,3.47 ± 0.54
AVSAMKCGLLPISPEALSLGEVAY [ADD1],2.31 ± 0.3,2.41 ± 0.066
AYSGNTSNLSYHLEKNHPEEFCEF [ZBED1],3.63 ± 0.38,3.55 ± 0.48
CASDEGEVIVFGGCANNLLVHHRA [KLHDC2],2.6 ± 0.35,2.27 ± 0.29
CDYCDRSFQDNLHNRKKHLNGLQH [ZMAT5],3.09 ± 0.71,3.11 ± 0.38
CERVVINVSGLRFETQMKTLAQFP [KCNA4],2.55 ± 0.42,2.51 ± 0.77
